From US20140314775A1 (ADRENOMED, published 2014)

What was measured:
[1] = molecular target: T1, human Adrenomedullin (hADM 1-52) (human, not fully specified; C-terminal amide (printed as PRSKISPQGY-NH2 for aa 43-52 of ADM, SEQ ID NO: 25; not restated for the peptide used in the assays)); assay: cell-based or functional assay
T1 peptide: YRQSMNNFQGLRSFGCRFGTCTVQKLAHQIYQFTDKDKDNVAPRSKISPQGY

[2] = molecular target: T1, human Adrenomedullin (hADM 1-52); assay: SPR, Biacore 2000; antibody captured via anti-mouse Fc on CM5, Adrenomedullin as analyte
Method: Reversible immobilization of the antibodies was performed using an anti-mouse Fc antibody covalently coupled in high density to a CM5 sensor surface according to the manufacturer's instructions (mouse antibody capture kit; GE Healthcare).

B1: NT-H (antibody, V domains shown)
VH: QVQLQQSGAELMKPGASVKISCKATGYTFSRYWIEWVKQRPGHGLEWIGEILPGSGSTNYNEKFKGKATITADTSSNTAYMQLSSLTSEDSAVYYCTEGYEYDGFDYWGQGTTLTVSS
VL: DVLLSQTPLSLPVSLGDQATISCRSSQSIVYSNGNTYLEWYLQKPGQSPKLLIYRVSNRFSGVPDRFSGSGSGTDFTLKISRVEAEDLGVYYCFQGSHIPYTFGGGTKLEIK
notes: also called antibody NT-H; NT-H antibody
- IC50 (read off the curve; half of the partial plateau), in the presence of 5.63 nM hADM [1]: ~2 µg/mL
- Kd [2]: 5.9 nM
